# Publication PMC7156819
# Molecular target: FOXM1 (Forkhead box M1) (UniProt Q08050)
# Assay: GST pull-down with purified proteins
# Conditions: reference: GST-ZNF148 WT without ERK; sites S306
substance,measurement,value
ZNF148 (ZBP‐89) (from UniProt Q9UQR1) GST-ZNF148 WT pre-incubated with active ERK,binding against the reference,stronger
